Assay: soluble on expression in E. coli; label from the status in PepcDB or PDB records

Sequence	soluble on expression in E. coli
DEAMLKIEQQEVVKNLPVGSKLVQLKYAGHSTDEPLLNQIYKEFEVTANILYGNIEILDGIPVGEMVVILSGDEEKLRQACQAITDSQVQLTLLKEGG	not soluble
MQPIEFLEGGCLCGAIRYRIEGNPFDADYCHCRMCQKSIGAAFGAWMDFNVSQVTWLKGNVTEFASSDFVRRGFCAQCGCSLTYRHTEYPDYLTLTIASFDDPNLVQPNYHIYTEQQLSWLKIEDNCQRYPQARTK	soluble
MAHHHHHHMGKHMNNQDFAETEQAARAIRKLLNGEIDTIKLENGNKLKIRSSDEKDDAHKRHNDKTNYSFIDNSEEENVQTNLLRKNETVDAGSKIVEDQEDFYILDNESIEAIANKISMENKFHEFEAEAFAQSLKDIIRSLNN	soluble
QPAQSGAFLVDQSQLTQSSILIGHQGGQLSNPDYPELSVMNGVINGFGGRLFNEIRSRQGLAYSVYGVWSPRYDYDGQFIAGGSTRTEATVPFITAMKGEIKRLQTELITPAELAYAKDSILNSFVFNFEDPGQTLSRLMRYEYYGYPEDFIFQYQREVEATTIEDVQRVAQTYLKPEQLTVLVVGN	not soluble
MSEAESVVIKGGNKDKILPLEAEEKKPIKEEKNKAVILSNWIIKYAPIVYFHPDEKCFPITVEEFLECTDVMNEKNEKFCDGKEILSGSFKDALGNQKFYLKITDTSVREGNLNSAKCYVYVRKRNKGRYLDLQYFFFYGYNGPTINIHLNKNKKNYSTSNIGENYGNWEHVTVVIDSTDGSILGAIFDQHGKSCFYDIDQLEYEKGHIVVYSALSSHASYPSAGKSVTEYDSQELGVPPVSVGIVKFELHDATDKGRRWDTSLVCQLVSYNITGTEVEEPKWMAFNGRWGKPYDLTDKDISILYQISRLPAGGKVVDSLLWRFIPYSKKNINQANGIKSKDDFNIIILEHHHHHH	not soluble
MLLQELHIYSEQSSSNTKVSIKNKDGEILFEYCYSNDAIPTFNPIELLRLSLEGDIGVLFQMKTSISQKSKKDDFRISCEQSRSETSRMNQ	not soluble
SKIVKIIGREIIDSRGNPTVEAEVHLEGGFVGMAAAPSGASTGSREALELRDGDKSRFLGKGVTKAVAAVNGPIAQALIGKDAKDQAGIDKIMIDLDGTENKSKFGANAILAVSLANAKAAAAAKGMPLYEHIAELNGTPGKYSMPVPMMNIINGGEHADNNVDIQEFMIQPVGAKTVKEAIRMGSEVFHHLAKVLKAKGMNTAVGDEGGYAPNLGSNAEALAVIAEAVKAAGYELGKDITLAMDCAASEFYKDGKYVLAGEGNKAFTSEEFTHFLEELTKQYPIVSIEDGLDESDWDGFAYQTKVLGDKIQLVGDDLFVTNTKILKEGIEKGIANSILIKFNQIGSLTETLAAIKMAKDAGYTAVISHRSGETEDATIADLAVGTAAGQIKTGSMSRSDRVAKYNQLIRIEEALGEKAPYNGRKEIKGQA	soluble
ETPAVQVSTNRQAIIINEQTQFKVDAALKNAGIQTDGMFVVDNSLKVRFKDTETQLKARDVIENTLGEGYITALNLLADSPEWMAKIKANPMFLGLDLRGGVHFTMQVDMKAAMQKTFERYSGDIRRELRREKIRSGTVRQAGNSLTVPLQDAGDVQKALPQLRKLFPEATLNSDGSNIVLTLSEEAVNKVCSDAVKQNITTLHNRVNELGVAEPVIQQSGADRIVVQLPGVQDTAKAKDIIGRTATLELRMVEDDPAKLREALEGNVPSGYELLSSGGDRPEILLISKQVELTGDNINDAQPSFDQMGAPAVSLSLDSAGGSIFGELTAANVGKRMAMVLIDQGKSEVVTAPVIRTAITGGRVEISGSMTTAEANDTSLLLRAGSLAAPMQIVEERTIGPSLGKENIEK	not soluble
MGSDKIHHHHHHMKKSIVVFEVEGGSDKHFDGHRKDTMPIVNSINDAGWQAEVVYYRPEWTEGLFEYVSENFDGYISRVNPGNIPGGERGYFDLLTRLSEAGLVGMSTPEEMMAYGAKDALVKLSQTDLVPSDTEAYYDVETFHKVFPTSLSFGERVLKQNRGSTGSGIWRVQLVDKELAASIEPGTALPLDTEIKCTEAVDNHTEVRKLGEFMDFCDQYIIGDNGMLVDMRFMPRIVEGEIRILLVGPHPVFVVHKKPAEGGDNFSATLFSGAKYTYDKPEQWQELIDLFADARPVIAEKLGGDNIPLIWTADFMLGDVVDGKDTYVLGEINCSCVGFTSELDMGIQQLVASEAIKRIEEFAQLTV	not soluble
MVTNKLITLLPDLATFIVVVNEGSFTAAAKKLGVTPSALSKLITRLENALSVKLFERTTRSLLITESGKKIYQQSVIMVEAAQQAVDISSSEHTVPSGSLTVAAPKAFLTIVLQPLITPFLTKYPKIQLKLRASDGDIDMIAQGIDVVFRLTDKPTEGLVMKEIGKVNLSLCASPTYLEERGIPHLPQELANHDCLFLGETTTDHIWEFVKGTESHVIAVSGRYAVNHSQMRLNGVKDGFGIGIFPDFVIKEALANNEVISVLSDWQIKGNYHGVIAMQYAQNKYIPSRLKVFTEFVKENLMKSKVNDERT	not soluble
QAPEQRSIRDGILLLHELGALTDDTQADGSPQLTQIGKDLANIPVDPRMARMLVEANTLGCLHSVMVIVSALTIQDVRERPLEFQAQADQAHARFKDTT	not soluble
MGSSHHHHHHSSGLVPRGSHMIRNRVMNSVVNKYLLHNRSIMFKNDQDVERFFYKREIENRKKHKQPSTLNVKANLEKLSLDDMQVFRFNFRHQIDKKILYIHGGFNALQPSPFHWRLLDKITLSTLYEVVLPIYPKTPEFHIDDTFQAIQRVYDQLVSEVGHQNVVVMGDGSGGALALSFVQSLLDNQQPLPNKLYLISPILDATLSNKDISDALIEQDAVLSQFGVNEIMKKWANGLPLTDKRISPINGTIEGLPPVYMFGGGREMTHPDMKLFEQMMLQHHQYIEFYDYPKMVHDFPIYPIRQSHKAIKQIAKSIDEDVTQNN	soluble
MAHHHHHHMEIKTASKIVRRVSNVEAFDKSGSVFKGYQIWTDISPTIENDPNIMFVKCVVQQGSKKEKLTVVQIDPPGTGTPYDIDPTHAWNCNSQVDPMSFGDIGLLNHTNIPCVLDFLKHRYLKNQIYTTAVPLIVAINPYKDLGNTTNEWIRRYRDTADHTKLPPHVFTCAREALSNLHGVNKSQTIIVSGESGAGKTEATKQIMRYFASSKSGNMDLRIQTAIMAANPVLEAFGNAKTIRNNNSSRFGRFMQLVISHEGGIRYGSVVAFLLEKSRIITQDDNERSYHIFYQFLKGANSTMKSKFGLKGVTEYKLLNPNSTEVSGVDDVKDFEEVIESLKNMELSESDIEVIFSIVAGILTLGNVRLIEKQEAGLSDAAAIMDEDMGVFNKACELMYLDPELIKREILIKVTVAGGTKIEGRWNKNDAEVLKSSLCKAMYEKLFLWIIRHLNSRIEPEGGFKTFMGMLDIFGFEVFKNNSLEQLFINITNEMLQKNFVDIVFERESKLYKDEGISTAELKYTSNKEVINVLCEKGKSVLSYLEDQCLAPGGTDEKFVSSCATNLKENNKFTPAKVASNKNFIIQHTIGPIQYCAESFLLKNKDVLRGDLVEVIKDSPNPIVQQLFEGQVIEKGKIAKGSLIGSQFLNQLTSLMNLINSTEPHFIRCIKPNENKKPLEWCEPKILIQLHALSILEALVLRQLGYSYRRTFEEFLYQYKFVDIAAAEDSSVENQNKCVNILKLSGLSESMYKIGKSMVFLKQEGAKILTKIQREKLVEWENCVSVIEAAILKHKYKQKVNKNIPSLLRVQAHIRKKMVA	not soluble
MGSDKIHHHHHHMSLQSGEWREQIDEVDAALIDEFQSDFPIQERPFEAVGDALGVSAGTALDRVKTLRDDGIFRRFGPVLNPPVIGSSTLAAVSAPEDRFDEVAEIINGYRQVNHNYARDHEWNMWFVVTAGSRQRRDEILAEIEERTGCSVLVLPMLTDYYIDLEFPVVNGDRFARESLETTDATATRISEDAAADLSELDRRLLLEIQSGFPLVATPYRDVADAVDADVSEVLSAIKRLQRTGCIKRIGCVVNHIVTGFDNNCMVVWDVPDDALDERGQAVGELPYVTLCYHRPRRPEQDWQYNLFTMIHGREADIVDEKIDELATDHLPYDHGRLYSTETLKQTGARYDDIVGQ	not soluble
MIPFDYERATDVDSAVATVTGDPRASFLAGGTNLVDHMKLGVARPHLLVDVSRLPLGDVVELPDGGLRIGAAVRNSDLAAHDVVRARYPMLSRALLSGASGQLRNLATTAGNLLQRTRCVYFQDVTTPCNKREPGTGCSAIGGYVRYHAILGASEHCVAVHPSDMAVAMTALDGVVVVRGADGERRIPLSEFYRLPGDRPDRDTVLAHGDLVTAVELPPPPSGNRSAYRKVRDRASFAFAVVSVAAELTIGDTSITSARVALGGVAHRPWRATLAEEVLVGSPPTEATYTEAAAAELAAAQPLPGNEFKVALTRRVLASVLRSLAEEARR	soluble
MRMKQTIPSSYVGLKINEWYTHIRQFHVAEAERVKLEVEREIEDMEEDQDLLLYYSLMEFRHRVMLDYIKPFGEDTSQLEFSELLEDIEGNQYKLTGLLEYYFNFFRGMYEFKQKMFVSAMMYYKRAEKNLALVSDDIEKAEFAFKMAEIFYNLKQTYVSMSYAVQALETYQMYETYTVRRIQCEFVIAGNYDDMQYPERALPHLELALDLAKKEGNPRLISSALYNLGNCYEKMGELQKAAEYFGKSVSICKSEKFDNLPHSIYSLTQVLYKQKNDAEAQKKYREGLEIARQYSDELFVELFQFLHALYGKNIDTESVSHTFQFLEEHMLYPYIEELAHDAAQFYIENGQPEKALSFYEKMVHAQKQIQRGDCLYEI	not soluble
AGQCSQNEYFDSLLHACIPCQLRCSSNTPPLTCQRYCNASVTNSVKG	soluble
MIRVYIALGSNLAMPLQQVSAAREALAHLPRSRLVACSPLYRTKPLGPQDQPDFLNAVVALDTSLPPEQLLDHTQAIERNQGRVRKEQRWGPRTLDLDIMLYGDQVIKTDRLTIPHYGLKAREFMLYPLADIAPDLIFPDGESLSECLKRVDKNGLVLW	soluble
MSLSTPPRAFSLVETGEALTRGDEPSPTRSAVLTRLSHSHMRFGTFQRLAYLDRRDLMVQLVDHVIESYFPDLADESDRPAVLMRAVVSASARLLSRWMSAGFVHGVLNTDNMVVTGESFDYGPWRFLPRNDPNFVAAYFDHAGLYSFGRQPEAVFWNLQQLAGCLSLVTDQAALLAALNSFSDLYRAALRGAMLDRLGLKSRGAEADIALVNTAFRALAEGGETLRWEPFFFDWFGGAASEERALRGPRAGLYAGEAFLDLRRALADFDPDRPERLAHPAFARPEPEELIIDEVEALWSPIADADDWGPLNAKLARIDAAREAYALGQAQIEGHHHHHH	soluble
MKKIPLGTTDITLSRMGLGTWAIGGGPAWNGDLDRQICIDTILEAHRCGINLIDTAPGYNFGNSEVIVGQALKKLPREQVVVETKCGIVWERKGSLFNKVGDRQLYKNLSPESIREEVAASLQRLGIDYIDIYMTHWQSVPPFFTPIAETVAVLNELKSEGKIRAIGAANVDADHIREYLQYGELDIIQAKYSILDRAMENELLPLCRDNGIVVQVYSPLEQGLLTGTITRDYVPGGARANKVWFQRENMLKVIDMLEQWQPLCARYQCTIPTLALAWILKQSDLISILSGATAPEQVRENVAALNINLSDADATLMREMAEALER	soluble
MSLNLPFRAMVSDLDGTLLTPEHLVGDLTIDTLRALEQKGVDIILATGRNHTDVSSILGKIGAERAVMITSNGARVRDLQGNLLYSNSLPEELVLELYKTPFDTSKVCMNSYQDEGWFTNKDIPAMRQFHKESGFDYNVVDFSKHHGRGTEKVFFIGKTPEDLVEVETYLRDKFGDVTTIVYSALACLEVMNKNVSKGDALKHLLESREYELKDCIAFGDGMNDVEMLSWAGKGCIMKDADIRLKMACPELEVIGSNKEESVARYLRTQFGLDYEGHHHHHH	soluble
